Experimental data: article PMC3384721
Several values for one entry are separate records, joined by “and”; a condition that tells them apart may be missing. Equal entries are not always repeated.

Legend:
[1] = target: A4V mutant copper-zinc superoxide dismutase (A4VSOD1) (human) (UniProt P00441); assay: AUC
[2] = target: A4V mutant copper-zinc superoxide dismutase (A4VSOD1) (human) (UniProt P00441); assay: atomic force microscopy

“A4V mutant copper-zinc superoxide dismutase (A4VSOD1) (from UniProt P00441 6-154) (enzyme)” was tested, and the percent of total protein as dimer [1] was 31.7%, the percent of total protein as tetramer [1] was 37.6% and the stoichiometry N [1] was 2 and 4. It also gave a stoichiometry N [2] of 4.
